From US20220389088A1 (UNIVERSITY OF FLORIDA RESEARCH FOUNDATION, published 2022) come the findings set out here.

Assay [1] addresses T1, recombinant human cANGPTL4 (C-terminus fibrinogen-like signaling peptide of angiopoietin-like 4) (human, UniProt Q9BY76 166-406).
T1 construct: also called C-terminus of ANGPTL4
T1 sequence: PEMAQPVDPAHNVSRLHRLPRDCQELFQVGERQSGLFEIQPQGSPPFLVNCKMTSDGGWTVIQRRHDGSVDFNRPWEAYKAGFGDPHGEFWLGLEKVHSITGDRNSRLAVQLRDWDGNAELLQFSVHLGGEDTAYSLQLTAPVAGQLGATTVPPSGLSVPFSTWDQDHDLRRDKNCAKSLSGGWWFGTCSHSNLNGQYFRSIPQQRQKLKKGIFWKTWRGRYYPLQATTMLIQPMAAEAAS
As to the kind of experiment: SPR (Reichert 2SPR), purified recombinant human cANGPTL4. The method, then:
The kinetic binding parameters and affinity of the purified antibodies was determined by surface plasmon resonance (SPR) using Reichert 2SPR machine (Reichert Technologies) and purified recombinant human cANGPTL4 (Table 2).

The target of assay [2] is T1, recombinant human cANGPTL4 (C-terminus …). As to the kind of experiment: direct ELISA of hybridoma supernatants.

B1: Ab-E, monoclonal rat-anti-human cANGPTL4 antibody (antibody, V domains shown)
VH: EVQLVESGGGLVQPGRSMKLSCAASGFTFSSFAMAWVRQAPTKGLEWVASISYDGGNTYYRDSVKGRFTISRDNAKSSLYLQMDSLRSEDTSTYYCASADLIWWYFDFWGPGTMVTVSS
VL: DIQMTQSPASLSASLEEIVTITCQASQDIGNWLAWYQQKPGKSPQLLIYGSTSLADGVPSRFSGSRSGTQYSLKISRLQVEDIGIYYCQQASSAPPTFGAGTKLELK
In general, Kd refers to the free concentration of one partner at which half of the binding sites on the other are occupied at equilibrium, for simple one-to-one binding. For orientation: koff means the rate constant with which the complex falls apart. In general, kon refers to the second-order rate constant of association. For the molecule B1, in assay [1], the Kd came to 3740 pM, the koff came out at 8.07e-05 s⁻¹ and the kon was found to be 21500 M⁻¹ s⁻¹.

B2: Ab-B, monoclonal rat-anti-human cANGPTL4 antibody (antibody, V domains shown)
VH: EVQLVESGGGLVQPGRSLKLSCAASGFTFSNYGMAWVRQTPTKGLEWVASISTGGSDTYYRDSVKGRFTISRDNAKNTQYLQMDSLRSEDTATYYCARQGFTEDTDYWGQGVMVTVSS
VL: DIQMTQSPSFLSASVGDRVTINCKASQNINKYLNWYQQKLGEAPKRLIYNTNNLQTGIPSRFSGSGSGTDYTLTISSLQPEDFATYFCLQHNSFPGTFGGGTKLELK
Turning to B2, in assay [1], the Kd stood at 132 pM, the koff was 3.69e-05 s⁻¹ and the kon amounted to 269000 M⁻¹ s⁻¹.

B3: Ab-C, monoclonal rat-anti-human cANGPTL4 antibody (antibody, V domains shown)
VH: EVQLVDSGGGLVQPGRSLKLSCAASGFTFSNYGMAWVRQIPTKGLEWVASISSGGGNTYYRDSVKGRFTISRDNAKNTQYLQMDSLRSEDTATYYCARDPGITGFDYWGQGVMVTVSS
VL: DIQMTQSPSFLSASVGDRVTINCKASQNINKYLNWYQQKLGEAPKRLIYNTNTLQTGIPSRFSGSGSGTDYTLTISSLQPEDFATYFCLQHNSFPGTFGPGTTLELK
On to B3, for which, in assay [1], the Kd turned out to be 199 pM, the koff was found to be 1.35e-05 s⁻¹ and the kon was found to be 67800 M⁻¹ s⁻¹.

B4: Ab-D, monoclonal rat-anti-human cANGPTL4 antibody (antibody, V domains shown)
VH: EVQLVESGGGLVQPGRSLKLSCAASGFTFSNYGMAWVRQTPTKGLEWVASISTGGGNTYYRDSVKGRFTISRDNAKNTQYLQMDSLRSEDTATYYCARDSTVDYFDYWGQGVMVTVSS
VL: DIQMTQSPSFLSASVGDRVTINCKASQKINKYLNWYQQKLGEAPKRLIYNTNNLQTGIPSRFSGSGSGTDFTLTISSLQPEDFATYCCLQHNSFPGTFGGGTKLELK
notes: also called Antibody Ab-D
For B4, in assay [1], the Kd came out at 480 pM, the koff was 3.89e-05 s⁻¹ and the kon amounted to 81100 M⁻¹ s⁻¹.

B5: Ab-A, monoclonal rat-anti-human cANGPTL4 antibody (antibody, V domains shown)
VH: QVQLKESGPGLMQPSETLSLTCTVSGFSLTTNGVGWVRQPLGKGLVWMGTIWAGGSTNYNSAVQSRLSISRDTSKSQVFLKMNSLQPEDTGTYYCARQPFYYYDGIHYTRGYFDYWGQGVMVTVSS
VL: DVQMTQSPYNLAASPGESVSINCKASKSISKYLAWYQQKLGKANKLLIYDGSTLQSGIPSRFSGSGSGTDFTLTIRSLEPEDFGLYYCQQHNEYPATFGGGTKLELK
For the molecule B5, the binding result in assay [2] is “binds”.
